In patent US20260250418A1 (BIOCYTOGEN PHARMACEUTICALS BEIJING, published 2026):
Substitutions are numbered along the chain they refer to.

Assays:
[1] = molecular target: T1, human EGFR (hEGFR, ACRO Biosystems Inc., Cat #: EGR-H5222), recombinant His-tagged (human, UniProt P00533 25-645); assay: SPR, Ab captured on Protein A
T1 construct: Bought protein; not shown: His tag
Experimental: (§1) The cross binding activities of anti-HER3 antibodies to HER family proteins were determined by surface plasmon resonance (SPR) using Biacore (Biacore, INC, Piscataway N.J.) 8K biosensor equipped with pre-immobilized Protein A sensor chips.
(§2) Purified anti-HER3 antibodies were diluted to 2 μg/mL and then injected into the Biacore 8K biosensor at 10 μL/min for about 50 seconds to achieve a desired protein density (e.g., about 200 response units (RU)). […] The association phase lasted for 180 s and the dissociation phase lasted 400 s followed by a regeneration step with Glycine (pH 2.0, 30 μL/min for 30 seconds). For isotype control (ISO), an antibody targeting an irrelevant target protein was used.

[2] = molecular target: T2, human HER4 (hHER4, ACRO Biosystems Inc., Cat #: ER4-H5221), recombinant His-tagged (human, UniProt Q15303 26-649); assay: SPR, Ab captured on Protein A
T2 construct: Bought protein; not shown: His tag
T2 sequence (looked up): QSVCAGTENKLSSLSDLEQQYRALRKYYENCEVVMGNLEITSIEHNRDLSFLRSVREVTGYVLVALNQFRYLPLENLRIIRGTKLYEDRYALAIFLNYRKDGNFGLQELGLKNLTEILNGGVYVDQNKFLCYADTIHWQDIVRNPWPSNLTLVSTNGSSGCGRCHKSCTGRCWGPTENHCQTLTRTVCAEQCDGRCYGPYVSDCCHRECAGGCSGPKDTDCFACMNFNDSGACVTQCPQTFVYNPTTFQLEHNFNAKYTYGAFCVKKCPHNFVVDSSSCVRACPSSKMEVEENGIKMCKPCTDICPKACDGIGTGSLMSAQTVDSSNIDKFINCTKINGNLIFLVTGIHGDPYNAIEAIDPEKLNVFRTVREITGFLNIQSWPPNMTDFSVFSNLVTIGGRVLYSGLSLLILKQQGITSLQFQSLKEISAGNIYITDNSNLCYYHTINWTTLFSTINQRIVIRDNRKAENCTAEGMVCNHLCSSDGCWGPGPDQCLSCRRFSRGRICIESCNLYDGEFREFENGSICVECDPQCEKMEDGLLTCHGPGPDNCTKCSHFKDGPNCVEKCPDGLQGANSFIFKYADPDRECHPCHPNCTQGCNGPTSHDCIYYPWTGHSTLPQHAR
Experimental: as §1, §2

[3] = molecular target: T3, human HER2 (hHER2, ACRO Biosystems Inc., Cat #: HE2-H5225), recombinant His-tagged (human, UniProt P04626 23-652); assay: SPR, Ab captured on Protein A
T3 construct: Bought protein; not shown: His tag
Experimental: as §1, §2

[4] = molecular target: T4, dog HER3 on CHO-dHER3 cells (dog, UniProt P21860 20-1342 (human entry)); assay: flow cytometry, transfected CHO cells
T4 construct: CHO-S cells transfected with dHER3
T4 chain: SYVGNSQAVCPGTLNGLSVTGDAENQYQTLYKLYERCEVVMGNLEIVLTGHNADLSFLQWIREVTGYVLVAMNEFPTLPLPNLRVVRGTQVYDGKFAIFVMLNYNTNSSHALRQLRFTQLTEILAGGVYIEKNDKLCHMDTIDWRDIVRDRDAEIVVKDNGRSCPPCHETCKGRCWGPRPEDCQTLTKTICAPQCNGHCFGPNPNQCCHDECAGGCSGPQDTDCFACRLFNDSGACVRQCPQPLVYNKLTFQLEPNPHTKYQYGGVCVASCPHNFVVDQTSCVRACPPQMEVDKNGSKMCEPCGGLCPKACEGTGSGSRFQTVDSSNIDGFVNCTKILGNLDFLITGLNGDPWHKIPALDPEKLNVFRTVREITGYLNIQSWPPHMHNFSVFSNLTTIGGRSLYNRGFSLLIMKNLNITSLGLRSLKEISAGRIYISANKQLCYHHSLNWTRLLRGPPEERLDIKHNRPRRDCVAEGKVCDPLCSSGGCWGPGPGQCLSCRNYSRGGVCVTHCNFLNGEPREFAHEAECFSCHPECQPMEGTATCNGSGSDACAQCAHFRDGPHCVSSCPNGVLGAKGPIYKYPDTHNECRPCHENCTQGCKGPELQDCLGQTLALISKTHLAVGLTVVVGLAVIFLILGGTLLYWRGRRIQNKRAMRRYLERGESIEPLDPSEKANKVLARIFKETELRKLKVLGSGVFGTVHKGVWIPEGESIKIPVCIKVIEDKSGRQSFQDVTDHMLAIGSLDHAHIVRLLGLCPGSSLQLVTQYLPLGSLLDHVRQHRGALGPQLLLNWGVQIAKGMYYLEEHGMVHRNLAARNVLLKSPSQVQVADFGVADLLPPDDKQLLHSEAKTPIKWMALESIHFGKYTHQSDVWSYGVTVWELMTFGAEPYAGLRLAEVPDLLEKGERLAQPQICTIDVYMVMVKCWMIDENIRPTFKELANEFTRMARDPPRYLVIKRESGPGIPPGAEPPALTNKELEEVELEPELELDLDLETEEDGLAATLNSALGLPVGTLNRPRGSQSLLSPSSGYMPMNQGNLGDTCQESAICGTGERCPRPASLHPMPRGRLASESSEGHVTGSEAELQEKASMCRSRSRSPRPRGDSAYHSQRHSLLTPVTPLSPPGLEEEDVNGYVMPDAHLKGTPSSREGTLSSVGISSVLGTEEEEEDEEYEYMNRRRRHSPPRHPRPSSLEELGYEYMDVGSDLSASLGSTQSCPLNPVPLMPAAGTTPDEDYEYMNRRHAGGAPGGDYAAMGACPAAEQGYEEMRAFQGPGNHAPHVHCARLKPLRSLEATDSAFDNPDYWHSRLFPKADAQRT
Experimental: CHO-hHER3 cells, CHO-mHER3 cells, CHO-fasHER3 cells or CHO-dHER3 cells were transferred to a 96-well plate at a density of 5×10⁴ cells/well respectively. The anti-HER3 antibodies were added to the 96-well plate, and incubated at 4° C. for 30 min.

B1: anti-HER3 antibody 3G6 (antibody, V domains shown)
VH: QVQLVQSGPVLVKPTETLTLTCTVSGFSLSNIRMGVSWIRQPPGKALEWLAHIFSNDDKSYSTSLKSRLTISKDTSKSQVVLTMTNVDPVDTATYYCTRMRYSGGPFDYWGQGTLVTVSS
VL: not shown
notes: common light chain
B1: no binding (tested: 400 nM) [1]; no binding (tested: 400 nM) [2]; no binding (tested: 400 nM) [3]. The “Percentage of Positive Cells” value [4] was 29.8%.

B2: anti-HER3 antibody 1B2 (antibody, V domains shown)
VH: B1 VH with G26T, I32A, T63P, S78T, V87M, T98S, T114S
VL: not shown
notes: common light chain
B2: no binding (tested: 400 nM) [1]; no binding (tested: 400 nM) [2]; no binding (tested: 400 nM) [3]. For the same binder, the “Percentage of Positive Cells” value [4] was 32.1%.

B3: anti-HER3 antibody 3E1 (antibody, V domains shown)
VH: B1 VH with Q1E, V12A, T63P, S67N, N86T, V87M, V90M, R101K
VL: not shown
notes: common light chain
B3: no binding (tested: 400 nM) [1]; no binding (tested: 400 nM) [2]; no binding (tested: 400 nM) [3]. For the same binder, the “Percentage of Positive Cells” value [4] was 13.2%.

B4: anti-HER3 antibody 1C5 (antibody, V domains shown)
VH: QVQLVESGGGVVQPGKSLRLSCAASGFTFSRSGMHWVRQAPGKGLEWVALISFDGSNKYYADSVKGRFTISRDNSKNTLNLQMNSLRAEDTAVYYCAKGGFGVVIYDAFDIWGHGTMVTVSS
VL: not shown
notes: common light chain
B4: no binding (tested: 400 nM) [1]; no binding (tested: 400 nM) [2]; no binding (tested: 400 nM) [3]. The “Percentage of Positive Cells” value [4] was 33.1%.
